This note sets out measurements from paper PMC10336132 (2023).

Assay [1] has as its target SdpA, SdpB, AmiC, the SPOR domain of CrbA and the periplasmic region of FtsN. Kind of assay: BLI; biotinylated target immobilised on streptavidin (SAX) sensors, DipM as analyte at several concentrations; equilibrium shifts fitted to a one-site model; 50 mM HEPES/NaOH pH 7.2, 50 mM NaCl, 5 mM MgCl2, 0.1 mM EDTA, 10% glycerol, 10 µM BSA, 0.01% Triton X-100. For orientation: BLI is a label-free optical method that tracks binding on a fibre tip over time.

A further assay concerns the target T1, CrbA(371-451) (Caulobacter crescentus NA1000, UniProt A0A0H3C8K5 371-451, biotinylated using NHS-PEG4-Biotin (for BLI)).
T1 chain: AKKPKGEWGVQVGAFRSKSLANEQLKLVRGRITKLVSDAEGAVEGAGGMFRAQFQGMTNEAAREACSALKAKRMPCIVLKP
Kind of assay: BLI.

The next assay has as its target T2, FtsN(51-266) (Caulobacter crescentus NA1000, UniProt B8GX61 51-266, biotinylated using NHS-PEG4-Biotin (for BLI)).
T2 chain: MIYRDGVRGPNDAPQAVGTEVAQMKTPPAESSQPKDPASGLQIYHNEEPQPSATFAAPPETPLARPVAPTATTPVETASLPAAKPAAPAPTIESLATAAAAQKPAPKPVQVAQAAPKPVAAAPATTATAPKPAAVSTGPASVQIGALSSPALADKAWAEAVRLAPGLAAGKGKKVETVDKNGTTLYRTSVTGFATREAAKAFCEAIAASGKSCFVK
The assay can be described thus: BLI.

The target in a further assay is T3, His6-SdpA(21-699) (Caulobacter crescentus NA1000, UniProt A0A0H3C7P1 21-699, biotinylated using NHS-PEG4-Biotin (for BLI)).
T3 chain: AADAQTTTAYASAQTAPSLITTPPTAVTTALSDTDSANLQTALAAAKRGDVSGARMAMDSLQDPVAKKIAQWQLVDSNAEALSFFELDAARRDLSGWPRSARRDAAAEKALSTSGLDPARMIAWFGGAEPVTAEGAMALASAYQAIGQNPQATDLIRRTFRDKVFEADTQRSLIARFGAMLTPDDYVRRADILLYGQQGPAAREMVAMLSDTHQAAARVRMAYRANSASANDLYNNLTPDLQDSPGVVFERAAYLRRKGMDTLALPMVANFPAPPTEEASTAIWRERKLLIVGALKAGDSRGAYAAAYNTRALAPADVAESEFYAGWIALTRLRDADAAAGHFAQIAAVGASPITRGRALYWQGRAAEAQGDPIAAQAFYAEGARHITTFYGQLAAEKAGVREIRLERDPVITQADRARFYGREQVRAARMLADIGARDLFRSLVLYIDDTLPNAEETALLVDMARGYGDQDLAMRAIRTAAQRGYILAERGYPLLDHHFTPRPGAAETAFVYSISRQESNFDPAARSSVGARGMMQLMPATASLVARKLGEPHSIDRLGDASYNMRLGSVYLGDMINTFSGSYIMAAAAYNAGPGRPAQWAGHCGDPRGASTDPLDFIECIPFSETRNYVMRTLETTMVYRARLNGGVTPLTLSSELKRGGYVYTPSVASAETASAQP
The assay can be described thus: BLI.

The target in another assay is T4, AmiC(35-395) (Caulobacter crescentus NA1000, UniProt A0A0H3C9I3 35-395, biotinylated using NHS-PEG4-Biotin (for BLI)).
T4 chain: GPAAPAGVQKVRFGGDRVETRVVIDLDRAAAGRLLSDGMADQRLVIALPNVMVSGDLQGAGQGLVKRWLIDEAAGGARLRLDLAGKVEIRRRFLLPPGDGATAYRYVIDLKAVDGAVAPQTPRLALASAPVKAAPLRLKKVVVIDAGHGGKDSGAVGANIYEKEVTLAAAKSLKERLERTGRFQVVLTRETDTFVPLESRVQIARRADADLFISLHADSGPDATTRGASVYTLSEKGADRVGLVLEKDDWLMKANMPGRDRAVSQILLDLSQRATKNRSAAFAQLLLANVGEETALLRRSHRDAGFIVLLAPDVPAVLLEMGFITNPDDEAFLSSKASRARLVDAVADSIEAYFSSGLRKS
Kind of assay: BLI.

The target in another assay is T5, SdpB(26-536) (Caulobacter crescentus NA1000, UniProt A0A0H3C791 26-536, biotinylated using NHS-PEG4-Biotin (for BLI)).
T5 chain: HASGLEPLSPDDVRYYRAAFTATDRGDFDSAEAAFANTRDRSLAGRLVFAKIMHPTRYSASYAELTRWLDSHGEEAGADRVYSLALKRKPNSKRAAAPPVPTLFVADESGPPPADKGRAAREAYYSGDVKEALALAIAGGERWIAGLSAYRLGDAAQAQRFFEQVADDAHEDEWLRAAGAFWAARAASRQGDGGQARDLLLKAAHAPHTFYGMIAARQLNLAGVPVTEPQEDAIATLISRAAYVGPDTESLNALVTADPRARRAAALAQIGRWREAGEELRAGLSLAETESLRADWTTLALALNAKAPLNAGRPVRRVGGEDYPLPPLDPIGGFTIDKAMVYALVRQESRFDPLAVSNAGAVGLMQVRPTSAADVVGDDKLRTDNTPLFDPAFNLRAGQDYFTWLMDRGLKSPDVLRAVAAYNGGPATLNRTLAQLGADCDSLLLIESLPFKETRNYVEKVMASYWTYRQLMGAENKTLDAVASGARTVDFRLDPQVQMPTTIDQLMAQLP
The assay can be described thus: BLI.

B1: MAS-DipM(26-609)-His6 (natural protein)
chain: MASGQSGQRFTPNFPITQPAAPPPGETIQAQPGEAESLPRPTPIPVQSAPPIAQAELPPPAPVSTPAPAPQPVLRATPPRTVVTTTVTGPVVEVAGKPQVRVVESGDALDAIARGMGSTRAELVKLNDLEPPYRLKLGQKIKGPATTAKAYVVQTGDTMFAIAKRFNVTAAALAEENDLKSGAAIKKGQKLLLPDGYKDKGPIKTTQVIPGTPATMVAEAEPAPATTRPATPAATPSRPVRQPVSEETSEPATTSTTTLSVTGSVVTVAGPRQVHTVKSGDTLTAIARKFDMSVSELAEANKLDTEKPLKLGAKIKGPATTQKAYSVQTGDTLGEIAKRFNVSVKALAAENNLRATASLKKGQKIALPDGFRDKGPIRTTTTTRPATPPANTYARVDSSAAAASTPSSPVPYTPSGAAPRPSAPVAAQPITPPPSSGRTIIETAAAPTEAEIIASGKGKFAWPLRGDIISSFGVKGTGQRNDGLNIRAPQGTPVLSSADGEIAYAGNQVPTFGNLVLVKHADGWVTAYAHLSSTNVKMRQQVKQGEQLGTVGATGGVNEPQLHFEMRYAPTVKDKAKPVDPALVLPR
B1: the dissociation constant Kd in assay [1] was 3 to 46 µM; in the assay with CrbA(371-451), 46.3 µM; in the assay with FtsN(51-266) it was 20 µM; with His6-SdpA(21-699), 12.1 µM; in the assay with AmiC(35-395), 18.3 µM; with SdpB(26-536) it was 3.5 µM.

One may read the Kd as the concentration at which binding is half-saturated.
